Measurements from US20240002497A1 (Merck Sharp & Dohme, published 2024).

How the values were obtained:
huNav1.7α + β1-β2-β3 [1] = target: T1, huNav1.7α + β1-β2-β3 (human, UniProt Q15858 1-1988; A5A6L6 19-218; O60939 30-215; Q2KI11 23-215); experiment: competition FACS, HEK FlpIn cells, vs EC30 of CMYC3-F0103265B04
T1 construct: Cell line (CHO FlpIn, HEK FlpIn, transient HEK293T) is named under assay; also called huNav1.7-beta1-beta2-beta3; human Nav1.7α with Navβ1, Navβ2 and Navβ3
Description: Competition FACS assays were performed with CMYC3-tagged ISVD F0103265B04 or F0103275B05(N93R) affinity maturation variant on a HEK FlpIn huNav1.7α+β1−β2−β3 transgenic cell line. Briefly, cells were resuspended in FACS buffer (PBS, 2% FBS, 0.05% NaN₃) and 1×10⁵ cells/well were transferred to 96-well V-bottom plates. Cells were subsequently resuspended in a 100 μL mixture of purified ISVD (dilution series) and CMYC3-tagged ISVD F0103265B04 (at a concentration equivalent to EC30) followed by incubation for 1.5 hours at 4° C. […] Between each step, the cells were centrifuged for 5 minutes at 200 g and washed with 100 μL/well FACS buffer. Prior to the read-out, the samples were resuspended in 5 nM TOPRO3 (Molecular probes, catalog #T3605) to exclude dead cells. F0103262CO2, F0103262B06, F0103265A11, F0103265B04, F0103275B05, F0103362B08, and F0103387G04 all compete with F0103265B04 for binding to huNav1.7α, in contrast to an irrelevant control ISVD (IRR) (see Table 21 and FIG. 15A, FIG. 15B, FIG. 15C, and FIG. 15D).

huNav157chim7 + β1-β2-β3 = target: T2, huNav157chim7 + β1-β2-β3 (human); experiment: FACS, transiently transfected HEK293T cells
T2 construct: DI, DIII, DIV from Nav1.5α, DII from Nav1.7α; also called huNav157 chimera 7
Description: (§1) Binding of the ISVDs to cell-expressed Nav1.7α was detected via murine anti-Flag (Sigma, catalog #F1804). Briefly, cells were resuspended in FACS buffer (PBS, 10% FBS, NaN₃) and transferred to a 96-well V-bottom plate at 1×10^5 cells/well. Purified FLAG3-tagged ISVD was diluted in FACS buffer and added to the cells for 30 minutes at 4° C. […] Prior to the read-out, the samples were resuspended in 1 μg/mL propidium iodide (Sigma, catalog #P4170) to exclude dead cells. Between each step, the cells were centrifuged for 5 minutes at 200 grams and washed with 100 μL/well FACS buffer.
(§2) FACS binding studies (as described above) were performed on HEK293T cells transiently transfected with expression vectors encoding a huNav1.7α or rhNav1.7α fused at the C-terminus via a P2A viral peptide linker to a single polypeptide encoding sodium channel beta subunits Navβ1, Navβ2, and Navβ3 in tandem (β1-β2-β3; SEQ ID NO:21). Similarly, HEK293T cells transiently transfected with expression vectors encoding chimeric variants of huNav1.7α in which individual domains are replaced by their huNav1.5α counterparts (chimeras 1 to 4 in FIG. 16) or with chimeric variants of huNav1.5 in which individual domains are replaced by their huNav1.7α counterparts (chimeras 5 to 8 in FIG. 16) fused at the C-terminus via a P2A viral peptide linker to β1-β2-β3 as above. See Table 7 for description of the expression vectors encoding the chimeras, Table 21 and FIG. 16).

[2] = target: T3, huNav157chim12 + β1-β2-β3 (human, UniProt Q15858 1-1988; A5A6L6 19-218; O60939 30-215; Q2KI11 23-215); experiment: FACS, transiently transfected HEK293T cells
T3 construct: DI S5-S6 from Nav1.5α, rest Nav1.7α; also called huNav157 chimera 12
Description: as §1, §2

huNav157chim6 + β1-β2-β3 = target: T4, huNav157chim6 + β1-β2-β3 (human); experiment: FACS, transiently transfected HEK293T cells
T4 construct: DI, DII, DIV from Nav1.5α, DIII from Nav1.7α; also called huNav157 chimera 6
Description: as §1, §2

huNav157chim5 + β1-β2-β3 = target: T5, huNav157chim5 + β1-β2-β3 (human); experiment: FACS, transiently transfected HEK293T cells
T5 construct: DI, DII, DIII from Nav1.5α, DIV from Nav1.7α; also called huNav157 chimera 5
Description: as §1, §2

huNav157chim4 + β1-β2-β3 = target: T6, huNav157chim4 + β1-β2-β3 (human, UniProt Q15858 44-1988; A5A6L6 19-218; O60939 30-215; Q2KI11 23-215); experiment: FACS, transiently transfected HEK293T cells
T6 construct: DII, DIII, DIV from Nav1.7α, DI from Nav1.5α; also called huNav157 chimera 4
Description: as §1, §2

[3] = target: T7, huNav1.7α(R277Q) + β1-β2-β3 (human); experiment: binding FACS, CHO FlpIn cells
T7 construct: polyprotein as encoded; the entry already carries R277Q; also called huNav1.7(R277Q)-beta1-beta2-beta3
Description: as §1
(§3) Based on the huNav1.7α model (as described above) the following huNav1.7α-rhNav1.7α polymorphisms can be allocated to the extracellular part of DI: N146S, F276V, R277Q, E281V and V331M. The first of the residues is in DI S1-S2 whereas the latter four residues belong to DI S5-S6. FACS binding studies (as described above) were performed to stable CHO FlpIn cell lines expressing different variants of huNav1.7+β1−β2−β3 each including one of the four possible extracellular huNav1.7α-rhNav1.7α polymorphisms in the DI S5-S6 region: F276V, R277Q, E281V and V331M (Table 23 and FIGS. 22A-22F). Individual polymorphisms were each sufficient to abolish the binding of F0103265B04, F0103362B08, F010301080, and F0103262B06 to huNav1.7α, recapitulating the absence of binding on rhNav1.7α. F0103262CO2, F0103275B05 and F0103387G05 are more subtly affected in terms of EC50 or Bmax by some of the polymorphisms. None of the individual DI S5-S6 polymorphisms by themselves appear to have an impact on the binding of the two rhNav1.7α cross-reactive ISVDs F0103387G04 and F0103464B09. In addition, no effect on binding of the two ISVDs was observed (data not shown) for the three extracellular DIV VSD huNav1.7α-rhNav1.7α polymorphisms Q1530P, H1531Y and E1534D (FIG. 22G).

rhNav1.7α + β1-β2-β3 = target: T8, rhNav1.7α + β1-β2-β3 (rhesus monkey); experiment: binding FACS, CHO FlpIn cells
T8 construct: also called rhNav1.7-beta1-beta2-beta3; rhesus Nav1.7α
Description: as §1, §3

[4] = target: T9, huNav1.7α(F276V) + β1-β2-β3 (human, UniProt Q15858 1-1988; A5A6L6 19-218; O60939 30-215; Q2KI11 23-215); experiment: binding FACS, CHO FlpIn cells
T9 construct: polyprotein as encoded, P2A sites liberate the subunits; the entry already carries F276V; also called huNav1.7(F276V)-beta1-beta2-beta3
Description: as §1, §3

[5] = target: T10, huNav1.7α(V331M) + β1-β2-β3 (human); experiment: binding FACS, CHO FlpIn cells
T10 construct: polyprotein as encoded; the entry already carries V331M; also called huNav1.7(V331M)-beta1-beta2-beta3
Description: as §1, §3

huNav1.7α + β1-β2-β3 [6] = target: T1, huNav1.7α + β1-β2-β3; experiment: binding FACS, CHO FlpIn cells
Description: as §1, §3

[7] = target: T11, huNav1.7α(E281V) + β1-β2-β3 (human); experiment: binding FACS, CHO FlpIn cells
T11 construct: polyprotein as encoded; the entry already carries E281V; also called huNav1.7(E281V)-beta1-beta2-beta3
Description: as §1, §3

Binder | IC50 (huNav1.7α + β1-β2-β3 [1]) [nM] | binding result (huNav157chim7 + β1-β2-β3) | binding result [2] | binding result (huNav157chim6 + β1-β2-β3) | binding result (huNav157chim5 + β1-β2-β3) | binding result (huNav157chim4 + β1-β2-β3) | EC50 [3] [nM] | binding result (rhNav1.7α + β1-β2-β3) | EC50 [4] [nM] | EC50 [5] [nM] | EC50 (huNav1.7α + β1-β2-β3 [6]) [nM] | EC50 [7] [nM] | binding result [3] | binding result [4] | binding result [7] | binding result [5]
F0103262C02 (VHH, entry includes the FLAG-HIS6 tag; also called F0103262C02 (parental)-FLAG-HIS6; F103262CO2) VHH: EVQLVESGGGLVQAGGSLTLSCAASGLPFGLYILGWIRRAPGKERDFVAAISRSGRDTVYANSVKGRFTISRDNAKNMVYLRMDNLRPEDTAAYYCAVDSVPRGTPTITESEYAIWGQGTLVTVSS | 530 | no binding (tested: 1 µM) | no binding (tested: 1 µM) | no binding (tested: 1 µM) | no binding (tested: 1 µM) | no binding (tested: 1 µM) | 450 | no binding | 210 | 86 | 290 | 240 | – | – | – | –
F0103262B06 (VHH, entry includes the FLAG-HIS6 tag; also called F0103262B06 (parental)-FLAG-HIS6) VHH: EVQLVESGGGLVQPGGSLRLSCAGSTRTFSTYAMGWFRQAPGREREFVAHINFSGSSTRYADSVKGRFTISRDNAKNMGYLQMNSLKPEDTAVYYCAARWVAGPPRYDYEYWGQGTLVTVSS | 49 | no binding (tested: 1 µM) | no binding (tested: 1 µM) | no binding (tested: 1 µM) | no binding (tested: 1 µM) | no binding (tested: 1 µM) | – | no binding | – | 63 | 47 | – | no binding | no binding | no binding | –
F0103265B04 (VHH, entry includes the FLAG-HIS6 tag; also called F0103265B04 (parental)-FLAG-HIS6) VHH: EVQLVESGGGLVQPGGSLRLSCAAPSFIFSNNYMEWYRQAPGKQRDWVARITGRGNTNYLDSVKGRFTISRDDAKNTVYLEIDSLKPEDTAVYYCSALWYGGRAWGKGTLVTVSS | 18 | no binding (tested: 1 µM) | no binding (tested: 1 µM) | no binding (tested: 1 µM) | no binding (tested: 1 µM) | no binding (tested: 1 µM) | 7.1 | no binding | – | – | 9.2 | 7.5 | – | no binding | – | no binding
F0103265A11 (VHH, entry includes the FLAG-HIS6 tag; also called F0103265A11 (parental)-FLAG-HIS6) VHH: EVQLVESGGGLVQPGGSLRLSCAASGMLFNANTQGWYRQAPGKQRELVAFIFSGGYTNYVDSVKGRFTISRDNAKRTMYLQMNSLKPEDSAIYYCSLSRYLGQGTLVTVSS | 75 | no binding (tested: 1 µM) | no binding (tested: 1 µM) | no binding (tested: 1 µM) | no binding (tested: 1 µM) | no binding (tested: 1 µM) | – | – | – | – | – | – | – | – | – | –
